Assay results as given in patent publication US5753483A, “Purified homogeneous UDP-GlcNAc (GalNAc) pyrophosphorylase” (priority 1995, dated 1998).

Legend:
[1] = tested on: CC(=O)NC1C(OP(=O)(O)OP(=O)(O)OCC2OC(n3ccc(=O)[nH]c3=O)C(O)C2O)OC(CO)C(O)C1O; experiment: purified protein, by the assay type; conditions: other: reverse direction, PP = 1 mM; 37.0 °C
[2] = tested on: CC(=O)N[C@H]1[C@@H](OP(=O)(O)OP(=O)(O)OC[C@H]2O[C@@H](n3ccc(=O)[nH]c3=O)[C@H](O)[C@@H]2O)O[C@H](CO)[C@H](O)[C@@H]1O; experiment: purified protein, by the assay type; conditions: other: reverse direction, PP = 1 mM; 37.0 °C

Pyrophosphorylase (Sus scrofa), sequence (chain, as listed by the source): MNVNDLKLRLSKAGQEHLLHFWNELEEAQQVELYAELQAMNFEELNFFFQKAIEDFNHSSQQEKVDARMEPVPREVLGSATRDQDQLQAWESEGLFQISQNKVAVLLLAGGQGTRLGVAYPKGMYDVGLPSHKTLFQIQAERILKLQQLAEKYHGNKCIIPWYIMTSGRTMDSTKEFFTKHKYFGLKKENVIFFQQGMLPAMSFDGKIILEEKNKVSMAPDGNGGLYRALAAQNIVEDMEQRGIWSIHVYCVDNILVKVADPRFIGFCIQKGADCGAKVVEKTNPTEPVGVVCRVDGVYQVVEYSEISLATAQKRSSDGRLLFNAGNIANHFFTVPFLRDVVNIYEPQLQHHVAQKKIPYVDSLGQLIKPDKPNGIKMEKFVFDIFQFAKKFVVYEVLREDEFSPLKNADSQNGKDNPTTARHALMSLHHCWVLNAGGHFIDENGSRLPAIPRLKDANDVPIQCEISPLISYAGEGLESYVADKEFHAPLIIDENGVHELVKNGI

Pyrophosphorylase (Sus scrofa) was tested, and the Km [1] was 45 µM and the Km [2] was 200 µM.
